B1: XG014 IgG (antibody, V domains shown)
VH: EVQLVQSGAEVKKPGESLKISCKGSGYSFSNYWIGWVRHMPGKGLEWMGIIYPGDSDTRYSPSFQGQVTISVDTSISTAYLQWSSLKASDTAMYYCTRHQYGYNYGYFYYYIDVWGKGTTVTVSS
VL: QSVLTQPPSVSAAPGQKVTISCSGSSSNIGNNPVSWYRQVPGTAPKLLIYDNNKRPSGIPDRFSGSKSGASATLGITGLQTGDEADYYCGTWHTSLSSGVFGGGTKLTVL
notes: also called parental IgG; source: recombinant
B2: rmAb23 (antibody, V domains shown)
VH: EVQLVESGGGLIQPGGSLRLSCAASGFTVSSNYMSWVRQAPGKGLEWVAVIYSGGSTDYADSVKGRFTISRDNSKNTLHLQMNSLRAEDTAVYYCARDLVVYGMDVWGQGTTVTVSS
VL: DIQLTQSPSFLSASVGDRVTITCRASQGISSYLAWYQQKPGKAPKLLIYAASTLQSGVPSRFSGSGSGTEFTLTISSLQPEDFATYYCQQLNSYPLTFGPGTKVDIK
B3: 01A05 (antibody, V domains shown)
VH: QVQLVQSGAEVKKPGASVKVSCKASGYTFTSYGISWVRQAPGQGLEWMGWISADNGNTNYAQKLQGRVTMTTDTSTSTAYMELRSLRSDDTAVYYCARVPMFVVPNCSGGGCYRRAWEAGLDVWGQGTTVTVSS
VL: DIQMTQSPSSLSASVGDRVTITCRASQSISNYLNWYQQRPGRAPKLLIYTTSNLQSGVPSRFSGSGSGTDFTLTISSLQPEDFATYFCQQSFTGTFGGGTKVEIK

Key:
[1] = biological target: T1, SARS-CoV-2 G614 (wild-type) receptor-binding domain (SARS-CoV-2, UniProt P0DTC2); test: ELISA; settings: both partners purified
T1 construct: also called RBD of G614; G614 RBD

[2] = biological target: SARS-CoV-2 Delta (B.1.617.2) receptor-binding domain (SARS-CoV-2 Delta (B.1.617.2), strain)
[3] = biological target: SARS-CoV-2 Alpha (B.1.1.7) receptor-binding domain (SARS-CoV-2 Alpha (B.1.1.7), strain)
[4] = biological target: T1, SARS-CoV-2 G614 (wild-type) …

| Binder | binding result [1] | binding result [2] | binding result [3] | Kd [4] [nM] |
| --- | --- | --- | --- | --- |
| B1 | binds | – | – | – |
| B2 | – | binds | binds | 6.5 |
| B3 | – | binds | binds | 2.5 |

Reference: article PMC10801922 (Proceedings of the National Academy of Sciences of the …, 2024)
